From publication PMC5843355, “Evaluation of the Trypanosoma brucei 6-oxopurine salvage pathway as a potential target for drug discovery” (PLoS Neglected Tropical Diseases, 2018) come the findings set out here.

Substrate in data set [1]: Nc1nc2nc[nH]c2c(=O)[nH]1
Kind of data set: Steady-state kinetic constants of 6-oxopurine bases for HGPRT-I. The class given is biochemical, Trypanosoma brucei. The following applies: other: HGPRT-I, PRib-PP 1 mM, pH 8.4, 25°C. On the procedure: The concentration of enzyme in the assay (varied from 75–200 μg/ml for the two enzymes) and the concentration of PRib-PP was kept at 1 mM. The reaction was carried out using a 1.0 cm path length with a UV Visible spectrometer 1601 (Shimadzu) in the reaction buffer (0.1 M Tris, pH 8.4; 0.11 M MgCl2; at 25°C).

Substrate in data set [2]: O=c1[nH]cnc2nc[nH]c12
Kind of data set: purified protein, by the assay type. The settings on record: PRib-PP 1 mM, pH 8.4, 25°C.

Substrate in data set [3]: Nc1nc2nc[nH]c2c(=O)[nH]1
Kind of data set: purified protein, by the assay type. The settings on record: PRib-PP 1 mM, pH 8.4, 25°C.

Substrate in data set [4]: O=c1[nH]c(=O)c2[nH]cnc2[nH]1
The data set is described as follows: purified protein, by the assay type. The following applies: other: HGXPRT, PRib-PP 1 mM, pH 8.4, 25°C.

Where a chain is given by its changes, count along the chain named. “And” between values parts separate entries of the source, which are not always exact repeats. Identical values can stand only once.

B1: HGPRT-I (Trypanosoma brucei brucei) (protein)
chain: EPACKYDFATSVLFTEAELHTRMRGVAQRIADDYSNCNLKPLENPLVIVSVLKGSFVFTADMVRILGDFGVPTRVEFLRASSYGHDTKSCGRVDVKADGLCDIRGKHVLVLEDILDTALTLREVVDSLKKSEPASIKTLVAIDKPGGRKIPFTAEYVVADVPNVFVVGYGLDYDQSYREVRDVVILKPSVYETWGKELERRKAAGEAKR
notes: 6x His-tag (N); AcTEV cleavage site (N); made in house; host or cells: E. coli One Shot BL21(DE3)
Broadly, the Km is the substrate concentration at which the rate is half of its maximum. The kcat is the number of substrate molecules converted per active site and unit of time at saturation. For orientation: kcat/Km means the second-order rate constant that governs catalysis at low substrate concentration. Consider B1, for which, in data set [1], the Michaelis-Menten constant (Km) is 16 µM and 15.9 ± 4.8 µM; the kcat was 0.38 s⁻¹; the kcat/Km came to 20000 M⁻¹ s⁻¹. Besides, the Michaelis-Menten constant (Km) in data set [2] (other: HGPRT-I) turned out to be 13.7 ± 2.9 µM.

B2: HGPRT-II (Trypanosoma brucei brucei TREU927) (protein)
chain: B1 chain with I48V, K53R, G205V, E206K, R209L
Consider B2, for which, in data set [3] (other: HGPRT-II), the Michaelis-Menten constant (Km) is 7.1 ± 1.8 µM. Also, in data set [2] (other: HGPRT-II), the Km was 4.2 ± 0.9 µM, the kcat turned out to be 0.03 s⁻¹ and the specificity constant (kcat/Km) worked out at 7000 M⁻¹ s⁻¹.

B3: HGXPRT (Trypanosoma brucei brucei TREU927) (protein)
chain: HSGHPLKPNFVGRDADGNVTVDGRSYPMAESVVATESTIHRSMKEMAQTLANAYKTLKHRDTHNKGNSALAPITDENPLIIISVLKGSYIFTADMVRYLGDCGLPNVVDFIRITSYRGTTKSSGTVQVLDNLRFTELTGKHVLIMEDIADTGRTMKLLVEKIRREYRPASLKVCVLVDKPGGRVVDFKPEFVCLTAPTRYVVGYGFEVNDRYRNYRHVFVLKPEYAKRYPSKL
On to B3, for which the Km in data set [3] (other: HGXPRT) was 32 ± 4.8 µM; in data set [2] (other: HGXPRT) it was 30.6 ± 7.8 µM; in data set [4], 31.9 ± 7.5 µM. Moreover, the kcat is 2.4 s⁻¹ in data set [2] (other: HGXPRT) and 3.66 s⁻¹ in data set [4]. Also, the catalytic efficiency (kcat/Km) was determined as 80000 M⁻¹ s⁻¹ in data set [2] (other: HGXPRT) and 110000 M⁻¹ s⁻¹ in data set [4].
